Measurements from patent US20220168434A1, “APPLICATION OF TRANSTHYRETIN IN ENTERING EYE AND PREPARING DROP” (YIZHOU (SHANGHAI) BIOLOGICAL MEDICINE CO, LTD., priority 2019, published 2022).

What was measured:
[1] = Protein content in vitreous body during two weeks of eye dropping (ELISA, anti-His tag antibody); assay type: in vivo, SD rats (Rattus norregicus); settings: SD rats; protein not fused with TTR
Description: (§1) The purified TTR protein (at a concentration of 4 μmol/L) prepared in Example 1 after removal of endotoxin and bacteria was subject to treating healthy SD rats (Rattus norregicus) (6 weeks old) and New Zealand big-eared rabbits (Oryctolagus cuniculus) (2 months old, about 2.5 kg) by means of eye dropping, the left eye was the sample eye dropped with the protein, and the right eye was the blank control eye dropped with saline. The protein was administered 1-3 times per day at a dosage of 0.4-0.8 nmol. Two weeks later, the eyeball was removed and separated to obtain the vitreous body sample. It was preliminarily verified by western-blot method (FIG. 7A) that TTR can enter the vitreous cavity from the ocular surface.
(§2) The purified TTR-GFP protein (at a concentration of 4 μmol/L) prepared in Example 2 after removal of endotoxin and bacteria was subject to treating healthy SD rats (Rattus norregicus) (6 weeks old) and New Zealand big-eared rabbits (Oryctolagus cuniculus) (2 months old, about 2.5 kg) by means of eye dropping, the left eye was the sample eye dropped with the protein, and the right eye was the blank control eye dropped with saline. The protein was administered 1-3 times per day at a dosage of 0.4-0.8 nmol. […] The content of TTR-GFP in the vitreous body sample was determined by ELISA with the anti-His tag antibody as the primary antibody (Table 10 and 11). […]

[2] = as above; assay type: in vivo, New Zealand big-eared rabbits (Oryctolagus cuniculus); settings: New Zealand big-ear rabbits; protein not fused with TTR
Description: as §1, §2

## Lysozyme: Lysozyme protein (Genbank Accession No.: AAL69327.1) not fused with TTR
[1]
  entering the vitreous body after eye dropping (in words): did not enter
[2]
  entering the vitreous body after eye dropping (in words): did not enter
